This is an account of results in article PMC6831851 (2019).

To fix the notation:
B1: neuron-derived neurotrophic factor (NENF) [human (endogenous in NTera2 and in fibroblasts)] / DJ-1 WT fused with FLAG [human] (parent complex)
chain 1: GQTPRPAERGPPVRLFTEEELARYGGEEEDQPIYLAVKGVVFDVTSGKEFYGRGAPYNALTGKDSTRGVAKMSLDPADLTHDTTGLTAKELEALDEVFTKVYKAKYPIVGYTARRILNEDGSPNLDFKPEDQPHFDIKDEF
chain 2: MASKRALVILAKGAEEMETVIPVDVMRRAGIKVTVAGLAGKDPVQCSRDVVICPDASLEDAKKEGPYDVVVLPGGNLGAQNLSESAAVKEILKEQENRKGLIAAICAGPTALLAHEIGFGSKVTTHPLAKDKMMNGGHYTYSENRVEKDGLILTSRGPGTSFEFALAIVEALNGKEVAAQVKAPLVLKD

In this assay the parent is B1. The assay is described as follows: co-immunoprecipitation (anti-FLAG IP, immunoblot with anti-NENF), band intensity; DJ-1 KO DNLCs; NENF band relative to FLAG (LC).
In the case of chain 2 C53A, the percent of parent is 23%.

On to chain 2 H126A, for which the percent of parent turned out to be 73%.

Regarding chain 2 E163K, the percent of parent was determined as 0%.

As to chain 2 V51A, the percent of parent amounted to 45%.
